Results from patent US20230168258A1 (UNIVERSIDAD DE MURCIA, published 2023).

Legend:
Experiment in all cases: dot-blot
horse oxytocin = target: T1, horse oxytocin (horse, UniProt P01176 1-9)
T1 construct: The form spotted in the dot-blot is not described; also called oxytocin of horse
T1 peptide (looked up): CYIQNCPLG

pig oxytocin = target: T2, pig oxytocin (pig, UniProt P01177 20-28)
T2 construct: only the oxytocin nonapeptide is meant; The form spotted in the dot-blot is not described; also called oxytocin of pig
T2 peptide (looked up): CYIQNCPLG

human oxytocin = target: T3, human oxytocin (human, UniProt P01178 20-28)
T3 construct: only the oxytocin nonapeptide is meant; The form spotted in the dot-blot is not described; also called oxytocin of human
T3 peptide (looked up): CYIQNCPLG

Measured: binding result

B1: monoclonal antibody P26C (antibody, V domains shown)
VH: QIQLVQSGPELKKPGETVKISCKASGYIFTNYGMNWVKQAPGKNLKWMGWINTNTGEPTYAEEFKGRFAFSLETSASIAYLKINNLKNEDTATYFCSRGGLLPLSYWGQGTLVTVSA
VL: DVVMTQTPLSLPVSLGDQASISCRSSQSLVHSNGNTYLHWFLQKPGQSPKLLIYKVSNRFSGVPDRFSGSGSGTDFTLKISRVEAEDLGVYFCSQSTHFPWTFGGGTKLEIK
notes: Mouse (BALB/c) hybridoma antibody; the isotype is stated as IgGk; It was tested as hybridoma supernatant in the ELISA; also called clone P26C; monoclonal antibody of the invention
binds: all assays above
